Substrate in the data set: O=[N+]([O-])c1ccc(OP(=O)(O)O)cc1
Nature of the data set: purified protein. To be noted: 2 mM Mn2+, 50 mM Tris-HCl pH 8.0, 37 °C.

B1: StpA (Enterococcus faecium DO) (protein)
chain: MQIEYQSDVGRRRNTNQDYASVFTSRSGLKLAVLADGMGGHRAGDIASQMAVTNLGEAWEKQEAVDDEKIAQWFIQSIQEENMLIYQRGQEQPEYNGMGTTIVAAALSDDWFTIANVGDSRAYLIREDKIMQLTEDHSLVNELVKSGEISEEMAVNHPRKNILTRSVGMPGTVEVDVSTHLWQLKDRLLLCSDGLTNMLSEEEIGTIINQEGPLSHKVTELIDRANEAGGADNITVLLIEYKEDSV
Broadly, the Km is the concentration of substrate that gives half-maximal velocity. One may read the kcat/Km as the second-order rate constant that governs catalysis at low substrate concentration. B1: the Km stood at 660 ± 90 µM, the kcat is reported as 1,200 ± 100 min^-1 and the kcat/Km was 30000 ± 4830 M⁻¹ s⁻¹.

The record behind these values is paper PMC4161250.
